Reference: patent publication US20210063414A1, “METHODS FOR PREVENTING AND/OR TREATING BONE LOSS CONDITIONS BY MODULATING IRISIN” (Dana-Farber Cancer Institute, Inc., priority 2018, published 2021)

Target: T1, MLO-Y4 cell surface proteins (Mus musculus, UniProt B1AVY7)
T1 construct: endogenous in cells; host or cells: MLO-Y4
T1 sequence (B1AVY7 1-1312): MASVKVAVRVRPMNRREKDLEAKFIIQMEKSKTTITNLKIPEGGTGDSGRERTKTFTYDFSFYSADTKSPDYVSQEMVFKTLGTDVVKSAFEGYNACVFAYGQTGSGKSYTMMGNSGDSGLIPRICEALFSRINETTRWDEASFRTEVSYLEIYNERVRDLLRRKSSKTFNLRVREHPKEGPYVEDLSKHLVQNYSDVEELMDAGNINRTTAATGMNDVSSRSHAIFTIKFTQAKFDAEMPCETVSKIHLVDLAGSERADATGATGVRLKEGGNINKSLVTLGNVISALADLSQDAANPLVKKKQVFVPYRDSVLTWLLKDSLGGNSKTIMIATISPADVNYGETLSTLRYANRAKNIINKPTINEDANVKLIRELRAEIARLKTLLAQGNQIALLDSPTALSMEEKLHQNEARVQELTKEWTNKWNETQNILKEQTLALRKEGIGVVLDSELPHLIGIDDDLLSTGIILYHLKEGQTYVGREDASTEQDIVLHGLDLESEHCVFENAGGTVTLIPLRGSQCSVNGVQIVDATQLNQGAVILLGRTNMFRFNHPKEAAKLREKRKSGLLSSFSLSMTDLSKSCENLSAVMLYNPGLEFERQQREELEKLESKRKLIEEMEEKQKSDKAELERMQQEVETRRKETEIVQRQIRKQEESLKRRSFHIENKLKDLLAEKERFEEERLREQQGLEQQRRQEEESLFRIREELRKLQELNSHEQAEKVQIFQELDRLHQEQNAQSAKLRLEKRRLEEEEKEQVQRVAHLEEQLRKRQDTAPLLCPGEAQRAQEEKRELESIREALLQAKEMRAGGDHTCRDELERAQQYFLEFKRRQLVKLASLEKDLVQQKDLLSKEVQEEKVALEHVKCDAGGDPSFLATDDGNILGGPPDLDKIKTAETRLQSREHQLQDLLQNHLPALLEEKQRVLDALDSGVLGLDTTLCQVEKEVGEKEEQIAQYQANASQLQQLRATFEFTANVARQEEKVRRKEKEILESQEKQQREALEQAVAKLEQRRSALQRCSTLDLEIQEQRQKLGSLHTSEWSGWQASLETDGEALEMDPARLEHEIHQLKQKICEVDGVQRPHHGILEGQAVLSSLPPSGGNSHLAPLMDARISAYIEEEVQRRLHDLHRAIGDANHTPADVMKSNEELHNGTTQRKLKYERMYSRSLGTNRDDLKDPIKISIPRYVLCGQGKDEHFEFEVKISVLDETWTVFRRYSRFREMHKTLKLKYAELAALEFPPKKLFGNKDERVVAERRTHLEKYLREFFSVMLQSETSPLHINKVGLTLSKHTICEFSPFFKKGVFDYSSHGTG
Assay: Crosslinking/co-immunoprecipitation/mass spectrometry (TMT quantitative proteomics) to identify irisin receptors
Type: binding
Conditions: co-precipitated protein Kif16b (KI16B_MOUSE)
Method in brief: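 Relative protein abundance came from 6-plex TMT MS3 quantitation on an Orbitrap Fusion Lumos, after in-gel trypsin digestion of Coomassie-stained SDS-PAGE lanes. Input was a Ni-NTA pulldown (250 mM imidazole elution) of lysates from murine MLO-Y4 cells. These cells were treated on ice with His-tagged irisin or adipsin (10 nM, 20 min) in serum-free medium, then crosslinked with 1.5 mM DTSSP for 30 min.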

B1: irisin: secreted cleaved form of FNDC5; recombinant human/mouse irisin with C-terminal his tag produced in HEK293 cells (protein)
chain: DSPSAPVNVTVRHLKANSAVVSWDVLEDEVVIGFAISQQKKDVRMLRFIQEVNTTTRSCALWDLEEDTEYIVHVQAISIQGQSPASEPVLFKTPREAEKMASKNKDEVTMKE
modifications: left off: small tags and cut ends
notes: secreted cleaved form of FNDC5; recombinant human/mouse irisin with C-terminal his tag produced in HEK293 cells
- TMT signal-to-noise ratio: 528.649
- irisin/adipsin TMT signal-to-noise ratio: 0.473
